Data reported in the supplement of paper PMC9170038.

Tested on: MS2 coat protein
Assay: apparent KD of MS2 coat protein; designed switch direction (-1 OFF switch, 1 ON switch): -1; higher = weaker reporter binding
How it was run: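 RNA switches sharing common flanks were transcribed by stalled E. coli RNA polymerase on Illumina chips. A doubling series of SNAP-549-labelled MS2 coat protein, from 0.7 or 1.5 nM to 3 µM, was applied in Tris-HCl pH 7.5 buffer with KCl, MgCl2, BSA, DTT, tRNA and Tween-20. Each step lasted 0.8–1.5 h at the bottom of the series and 10–20 min at the top. Normalised cluster fluorescence was curve-fitted, giving apparent KD as the per-design median over clusters.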

[1] = Eterna round: R95, input ligand: FMN 200 uM
[2] = Eterna round: R95, input ligand: microRNA oligo, concentration not stated
[3] = Eterna round: R95, input ligand: none
[4] = input ligand: microRNA oligo, concentration not stated

| Sequence | apparent KD of MS2 coat protein [1] | apparent KD of MS2 coat protein [2] | apparent KD of MS2 coat protein [3] | apparent KD of MS2 coat protein (input ligand: FMN 200 uM) | apparent KD of MS2 coat protein (input ligand: none) | apparent KD of MS2 coat protein [4] |
| --- | --- | --- | --- | --- | --- | --- |
| GCUUGGCGAGGAUAUACAUGAGGAUCACCCAUGUGAGAGAAAUAAGUGAGGAAGAAAAGUAGAAGGCGCUGAGG [Mat - Exclusion 3 - Mod of Salish D59] (puzzle: Exclusion 3) | 167 nM | 58.9 nM | 61 nM |  |  |  |
| CCCUGACAUGAGGAUCACCCAUGUUAGGAUAUAACAUUUGACACGACAGUGUGAAGUGUUAGAAGGGAUAUGGG [-28.4, -26.7 kcal, A 31%] (Eterna round: R97, puzzle: Exclusion 1) |  |  |  | 36.2 nM | 22.1 nM |  |
| UAUAUGUCAGGAUAUUGUUAAUUUAGUUGUUUGUAUUAGUUCGAGAAGGGACAUGAGGAUCACCCAUGUUGUUU [Ex4 #57] (Eterna round: R97, puzzle: Exclusion 4) |  |  |  | 28.8 nM | 29.6 nM |  |
| UACACCACAUGAGGAUCAAACAUGAGGAUCACCCAUGUGUAGCAAGCUUUUUGCUCGUCUUAUAAAUAUGUGGUGUA [Electric Eye 7 - Jieux - Sensor, turn-off variant 1] (Eterna round: R97, puzzle: Sensor, turn-off variant 1) |  |  |  | 11.7 nM | 11.9 nM |  |
| CCGGAAAGGGAGGAUAUAGGAGUCGAUAGACACCUAGAAGGUCUGACAUGAGGAUCACCCAUGUGUCCUACCGG [Fiskers Ex 6 - 90] (puzzle: Exclusion 6) | 20.3 nM | 19.9 nM | 19.8 nM |  |  |  |
| CUGGUCCGAGGAUAUAUUUUGUGAUACAUGAGGAUCACCCAUGUAAUAAGAUGGAAGUAAAUAGAAGGCGGACUAG [Mat - Exclusion 5 - JL mod - D47] (puzzle: Exclusion 5) | 69.3 nM | 125 nM | 150 nM |  |  |  |
| CUCAUGUGAGGAUAUGUGAUCAACCUUCUGUAUAGAUGAUUACAGAAGGCACAUGAGGAUCACCCAUGUAGAUC [Ex4 - 3 - 22] (puzzle: Exclusion 4) |  | 91.6 nM |  |  |  |  |
| GGAUUUACUGAGGAUAUUACAUCACCCGAUUGAUAAGAAGGCAGAACAUGAGGAUCACCCAUGUGGGUAGUCAA [Polaris3] (Eterna round: R97, puzzle: Exclusion 6) |  |  |  | 70.1 nM | 111 nM |  |
| UACGAAUUAGGAUAUGCAAUGGGCUCGCUUUCCUUCGAUAAACUUGAGGAUCACCCAAGUAGAAGGAAUUUGUA [Mod 37 - Jieux - Exclusion 2] (Eterna round: R97, puzzle: Exclusion 2) |  |  |  | 14.8 nM | 12.9 nM |  |
| AAGGUGUUAGGAUAUCGUAGUUUGAGGCAGACGGGAUUUUGCGAGAAGGAACAUGAGGAUCACCCAUGUAGGAU [JR_Exclu4_Sub040] (puzzle: Exclusion 4) |  | 25.9 nM |  |  |  |  |
| UGAAAGUGAGGAUAUCCAAUAUAUGACAUGAGGAUCACCCAUGUUUCCACUCGUACCUCCGGAGAAGGCACAAGGU [Ex5 #57] (Eterna round: R97, puzzle: Exclusion 5) |  |  |  | 25.5 nM | 29.4 nM |  |
| CAUGAUUGGCGAGGAUAUUGACCUAGUUCGCGACGAGAAGGCGCCUGUCACAUGAGGAUCACCCAUGUGAAUCUGGUGAAAGAG [Ex NG1 #91] (Eterna round: R96, puzzle: Exclusion NG 1) |  |  |  | 14.5 nM | 20.3 nM | 11.4 nM |
| AGCUGUGGCCGAGGAUAUCCACAUGAGGAUCACCCAUGUUGAUACGCCGUUAAAGGCGAUAUAAGGGAGAAGGCGGUCUCAGCA [Eli eng2 - 051] (Eterna round: R96, puzzle: Exclusion NG 2) |  |  |  | 12.5 nM | 9.26 nM | 7.18 nM |
| AAAAUGUGAGGAUAUCACGGAGCUCCGCGUGACGAAGCUCCUGAGAAGGCACAUGAGGAUCACCCAUGUCCUGU [EX4 A.30] (Eterna round: R97, puzzle: Exclusion 4) |  |  |  | 296 nM | 54.4 nM |  |
| GGAGGAAACGUAGGAUAUUGAAUAAAGCGGAAACGCAAGACAUGAGGAUCACCCAUGUGUCCGGACGAGAAGGGCGAAGAAGAA [AK 1] (Eterna round: R96, puzzle: Exclusion NG 2) |  |  |  | 59.8 nM | 80.8 nM | 60.1 nM |
| GGAUCGAGUGUGAGGAUAUACCUAUGGAUACAUAGGUAGAAGGCACAUGAGGAUCACCCAUGUUCCUACGGUCC [Eli bmx4 4.08] (Eterna round: R97, puzzle: Brourd's mod of Exclusion 4) |  |  |  | 713 nM | 62.3 nM |  |
| ACAUGACCGCUAGGAUAUAGAUGACAUGAGGAUCACCCAUGUUGUCCCAUGUUGACGAUCACCGACUAGAAGGAGCCACCCAUG [ExNG2 5th] (Eterna round: R96, puzzle: Exclusion NG 2) |  |  |  | 53.4 nM | 52.5 nM | 34.6 nM |

| Sequence | apparent KD of MS2 coat protein [1] | apparent KD of MS2 coat protein [2] | apparent KD of MS2 coat protein [3] | apparent KD of MS2 coat protein (input ligand: FMN 200 uM) | apparent KD of MS2 coat protein (input ligand: none) | apparent KD of MS2 coat protein [4] |
| --- | --- | --- | --- | --- | --- | --- |
| GCCGUGUCAGGAUAUCGGCGGCUAUAAGUGUACGUACCUUUCGAGAAGGGACAUGAGGAUCACCCAUGUAAAUC [Eternabot (L1) Solution 25] (Eterna round: R97, puzzle: Exclusion 4) |  |  |  | 29.9 nM | 28.9 nM |  |
| AAGAUGCGCGCAGGAUAUGGAGAGAAAGAAAGACCAGAAGGGCGGGUCACACAACAUGAGGAUCACCCAUGUGUGUGUUGCGAA [snuffleupagus] (Eterna round: R96, puzzle: Exclusion NG 1) |  |  |  | 9.29 nM | 12.2 nM | 9.54 nM |
| UUUUUGUGAGGAUAUCAGUAGUAGAACAAUAGUACUACUACUGAGAAGGCACAUGAGGAUCACCCAUGUUUCUC [Fiskers Ex 4 Super stable 44 mod 10] (puzzle: Exclusion 4) |  | 43.3 nM |  |  |  |  |
| CCGAGGUGGCGGUCCUAUGACAUGAGGAUCACCCAUGUACCUCGCCACGAGCUUUUUGCUCACCUUAUAAUUCUCGG [Ragequen] (puzzle: Sensor v3, turn-off variant 1) | 18.7 nM | 17.6 nM | 19.4 nM |  |  |  |
| GGUUUUUUUUUCCUUUCUUACAUGAGGAUCACCCAUGUUUCUUGUCGUGCUCGCGUUGCUCGUCUGUCUGUCUGUUG [salish99_TOv1_r3_075(!)] (puzzle: Sensor v3, turn-off variant 1) | 49.7 nM | 41 nM | 56.2 nM |  |  |  |
| GGAAAGUGAGGAUAUGGUAAAGUAAGUAUGUAGUAAGUAAUCCAGAAGGCACAUGAGGAUCACCCAUGUAAAGG [Mat - Exclusion 4 - D101] (puzzle: Exclusion 4) | 24.8 nM | 25.4 nM | 26.8 nM |  |  |  |
| GCCGGAGCAGGAUAUCUAAUAUAUCACAUGAGGAUCACCCAUGUCCAGCGAAAGCUGGAGGGAGAAGGGCUCUGGC [Fiskers Ex 5 - 22] (puzzle: Exclusion 5) | 59.7 nM | 133 nM | 132 nM |  |  |  |
| GUCAGACGAGGAUAUAAACGAUAUAACAUGAGGAUCACCCAUGUACGAUCGAAUGAUCGUUUAGAAGGCGUCUGAC [E5/10-A4] (Eterna round: R97, puzzle: Exclusion 5) |  |  |  | 17.3 nM | 16.7 nM |  |
| AAUUAUUUAUGAGGAUAUUGUGGUGAAACACCACAAGAAGGCAUGAUACACAUGAGGAUCACCCAUGUGAGCCUUAUGCAUAUA [Ex NG1 #57] (Eterna round: R96, puzzle: Exclusion NG 1) |  |  |  |  |  | 16.5 nM |
| UUUAAUUUUUUUUUUUUACAAGCUUUUUGCUCGUCUUAUACAUGAGGAUCACCCAUGUGGGUGAAAGAUAGAUUGUC [JMF's solution 3] (puzzle: Sensor v3, turn-off variant 2) | 87.2 nM | 20.4 nM | 35.8 nM |  |  |  |
| GCAGGCGUCUAGGCUCGUCUUAUUUUGAGAAGAUUGAUAACAUGAGGAUCACCCAUGUUUGUGGGAGAGUUGGAGUG [JR_SV3TOV2_Sub014] (puzzle: Sensor v3, turn-off variant 2) | 159 nM | 258 nM | 209 nM |  |  |  |
| AUUGUGUUAGGAUAUAACAACUACUAAUAAAUUAGUAGUUGUUAGAAGGAACAUGAGGAUCACCCAUGUAUGAU [-21.1, -20.3 kcal, A 38%] (Eterna round: R97, puzzle: Exclusion 4) |  |  |  | 60 nM | 29.4 nM |  |
| CACCGUUACAGAGGAUAUGAUACAUGAGGAUCACCCAUGUAAUAAAUGAGAAUUUCGAAUGUACCUCAGAAGGCUGGAACCGGC [Ostricism 79 - Jieux - Exclusion NG 2] (Eterna round: R96, puzzle: Exclusion NG 2) |  |  |  |  |  | 31.1 nM |
| GUCAGCUCGUGAGGAUAUAUAUUAACAUGAGGAUCACCCAUGUAAGAUCAGCUUCGGCAGUUAAUAUAGAAGGCACGAGCUGAC [ENG2/14-A1] (Eterna round: R96, puzzle: Exclusion NG 2) |  |  |  |  |  | 137 nM |
| AAAUUGGUAGAGGAUAUCGUACAGGAAACGAUGCGAGAAGGCUGCACAUGAGGAUCACCCAUGUUUAGUUGCGA [EX6 #42] (Eterna round: R97, puzzle: Exclusion 6) |  |  |  | 19.2 nM | 19.4 nM |  |
| AUAAAUCAUGUAGGAUAUGCGUGGCAAAGCUAUGCAGAAGGACAUGAGGAUCACCCAUGUCUUUCCGUCUGAGUACAGACGGGA [Mat - Exclusion NG 1 - Mod of JL - D47] (Eterna round: R96, puzzle: Exclusion NG 1) |  |  |  | 172 nM | 24.9 nM | 21.1 nM |
| AGCUAGUGCCGAGGAUAUACAUGAGGAUCACCCAUGUAAGCCAGUCGGUUUCUGACUGGCAAUAUGUAGAAGGCGGCGUUGGCA [JL ENG2 1.49] (Eterna round: R96, puzzle: Exclusion NG 2) |  |  |  | 48.2 nM | 16.6 nM | 11.3 nM |
